Results as given in patent US20170029481A1 (EPODOSE, published 2017).
Read-outs that look alike come from different tables or passages of the source. Where no end group is shown, it is not given here. [ ]: non-standard residue; d: D form. hLeu = CC(C)CC[C@H](N)C(=O)O; βAla = NCCC(=O)O

T1: erythropoietin receptor, human recombinant (NSO cells) (human) (UniProt P19235)
T1 sequence (looked up): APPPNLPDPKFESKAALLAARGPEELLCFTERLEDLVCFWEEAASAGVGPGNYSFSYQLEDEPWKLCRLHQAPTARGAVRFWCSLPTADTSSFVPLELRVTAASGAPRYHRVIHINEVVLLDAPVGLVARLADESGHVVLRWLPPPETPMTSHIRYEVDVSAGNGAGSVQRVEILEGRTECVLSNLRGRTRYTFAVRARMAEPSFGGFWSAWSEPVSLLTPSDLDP

T2: erythropoietin receptor, human recombinant (NSO cells) (human, UniProt P19235 25-250, limits assumed)
T2 construct: also called EPOR; EPO receptor
T2 sequence (looked up): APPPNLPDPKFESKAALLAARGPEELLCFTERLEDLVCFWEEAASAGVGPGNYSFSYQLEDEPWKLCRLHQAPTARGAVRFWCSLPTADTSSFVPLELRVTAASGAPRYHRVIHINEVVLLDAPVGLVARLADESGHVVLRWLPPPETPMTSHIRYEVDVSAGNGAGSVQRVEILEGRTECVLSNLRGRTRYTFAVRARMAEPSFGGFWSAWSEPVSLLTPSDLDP


Experiments:
Experiment in all cases: radioligand binding, displacement of [125I]EPO
[1] = biological target: T1, erythropoietin receptor, human recombinant (NSO cells) (human)
[2] = biological target: T2, erythropoietin receptor, human …
[3] = biological target: T2, erythropoietin receptor, human …; remark: listed apart in the source
[4] = biological target: T2, erythropoietin receptor, human …; remark: listed apart in the source

Binder | Ki [1] [nM] | IC50 [2] [nM] | Ki [2] [nM] | Ki (AC-0005-002)/Ki [2] | further results
Ac-NYLRM[βAla]WVKP (peptide, part only; not given: Bridge, linker and tail moieties, not shown: small tags and cut ends, also: two linked chains, linker and second chain not given here) [EPO mimetic 3. (N-End AcNYL, Loop RMβAWV, Mid KP)] | 27 | – | – | – | –
LYACHMGPITAVCQP (not fully specified; cysteine pairing not given here, Structure only as drawing CHEM-US-00006; also called compound 004) [AC-0005-004] | – | 265 | 126 | 31 | –
NYLCRMGPITWVCKP (not fully specified; cysteine pairing not given here, Structure only as drawing CHEM-US-00005; also called compound 003; Control 2: AC-0005-003) [AC-0005-003] | – | 119 | 56 | 69 | IC50 [3]: 171 nM; Ki [3]: 81 nM; Ki (AC-0005-002)/Ki [3]: 48; IC50 [4]: 164 nM; Ki [4]: 78 nM; Ki (AC-0005-002)/Ki [4]: 0.041
GGLYACHMGPITAVCQPQGG (not fully specified; cysteine pairing not given here, Structure only as drawing CHEM-US-00004; also called compound 002) [AC-0005-002] | – | 8170 | 3870 | 1 | –
Ac-NYLRMGWVKP (peptide, part only; not given: Bridge, linker and tail moieties, not shown: small tags and cut ends, also: two linked chains, linker and second chain not given here) [EPO mimetic 2. (N-End AcNYL, Loop RMGWV, Mid KP)] | 22 | – | – | – | –
Ac-NYLRMGWVRP (peptide, part only; not given: Bridge, linker and tail moieties, not shown: small tags and cut ends, also: two linked chains, linker and second chain not given here) [EPO mimetic 4. (N-End AcNYL, Loop RMGWV, Mid RP)] | 44 | – | – | – | –
GGNYLCRMGPITWVCKPQGG (not fully specified; cysteine pairing not given here, Structure only as drawing CHEM-US-00003; also called compound 001) [AC-0005-001] | – | 1300 | 615 | 6.3 | –
Ac-NYLRMLWVRP (peptide, part only; not given: Bridge, linker and tail moieties, not shown: small tags and cut ends, also: two linked chains, linker and second chain not given here) [EPO mimetic 8. (N-End AcNYL, Loop RMLWV, Mid RP)] | 34 | – | – | – | –
Ac-NYLRM[hLeu]WVRP (peptide, part only; not given: Bridge, linker and tail moieties, not shown: small tags and cut ends, also: two linked chains, linker and second chain not given here) [EPO mimetic 9. (N-End AcNYL, Loop RMhomoLWV, Mid RP)] | 23 | – | – | – | –
[DesaminoY]LRMPWVKP (peptide, part only; not given: Bridge, linker and tail moieties, not shown: small tags and cut ends, also: two linked chains, linker and second chain not given here) [EPO mimetic 15. (N-End Desamino YL, Loop RMPWV, Mid KP)] | 9.6 | – | – | – | –
Ac-NYLRMFWVRP (peptide, part only; not given: Bridge, linker and tail moieties, not shown: small tags and cut ends, also: two linked chains, linker and second chain not given here) [EPO mimetic 6. (N-End AcNYL, Loop RMFWV, Mid RP)] | 17 | – | – | – | –
